What was measured:
recombinant human CD32a = target: T1, recombinant human CD32a (human, UniProt P12318 34-217); assay: ELISA on recombinant human CD32a, hybridoma screening
T1 sequence: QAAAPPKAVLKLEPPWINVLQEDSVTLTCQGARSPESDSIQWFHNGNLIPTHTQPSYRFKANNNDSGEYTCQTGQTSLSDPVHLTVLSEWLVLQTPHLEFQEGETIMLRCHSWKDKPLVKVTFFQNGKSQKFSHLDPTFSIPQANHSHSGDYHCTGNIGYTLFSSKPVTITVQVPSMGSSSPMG
Text: (§1) In order to develop a specific murine monoclonal antibody against Human CD32a using a peptide antigen […] (SEQ ID NO: 40), different criteria were taken into account when designing the peptide: (1) The peptide must not include residue # 167 submitted to a strong polymorphism; (2) The peptide should be specific for CD32a vs CD32b as much as possible to avoid cross-reactivity of anti-CD32a antibody with human CD32b. Thus, a first step was the selection, design and synthesis of a relevant peptide. In order to enhance the immune response, the peptide to carrier conjugation technique (KLH) was used. The peptide thus produced was used in the immunization of 5 mice with an optimized protocol of 45 to 74 days (4-6 injections). The immune response was monitored by bleeding and titration tests (ELISA against the peptide and recombinant human CD32a and CD32b in parallel). Following the results of these tests, the spleen cells from the best mouse were fused with a mouse myeloma cell line. The culture of the hybridomas obtained was carried out in selective medium before the screens for the selection at the polyclonal stage of specific hybridomas against the peptide in ELISA (10× 96-well plates). Further screening for clones positive against recombinant human CD32a and CD32b was performed in parallel. […]

recombinant human CD32b = target: T2, recombinant human CD32b (human, UniProt P31994 46-217); assay: ELISA on recombinant human CD32b, hybridoma screening
T2 sequence: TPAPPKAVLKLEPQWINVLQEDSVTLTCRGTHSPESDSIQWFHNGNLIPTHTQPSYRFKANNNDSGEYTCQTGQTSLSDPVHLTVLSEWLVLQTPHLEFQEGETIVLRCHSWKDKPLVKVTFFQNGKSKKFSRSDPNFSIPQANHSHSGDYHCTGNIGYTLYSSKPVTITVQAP
Text: as §1

B1: murine monoclonal anti-human CD32a antibody from hybridoma 8E2 (antibody, V domains shown)
VH: EVKLQESGPSLVQPGGSMNLSCVASGFTFSTHWMSWVRQSPEKGLEWIAEIRLKTDNYATHYAESVKGLFTISRDDSKSRLYLQMKSLRTEDSGIYYCTTHFAYWGQGTLV
VL: DVVMAQSPLSLPVSLGDQASISCRSSQSLVDSHGNTYLHWYLQKPGQSPKLLIYKVANRFSGVPDRFSGSGSGTDFTLKISRVEAEDLGVYFCSQSTHVPPVTFGAGTKLELK
notes: Tested as hybridoma supernatant in the ELISA screens
- binding result (recombinant human CD32a): binds
- binding result (recombinant human CD32b): no binding

Source: patent publication US20210405026A1 (CENTRE NATIONAL DE LA RECHERCHE SCIENTIFIQUE, published 2021)
